Results from the supplement of paper PMC12338614.

B1: library; numbered along this chain (parent)
chain: MEVVDPQQLGMFTEGELMSVGMDTFIHRIDSTEVIYQPRRKRAKLIGKYLMGDLLGEGSYGKVKEVLDSETLCRRAVKILKKKKLRRIPNGEANVKKEIQLLRRLRHKNVIQLVDVLYNEEKQKMYMVMEYCVCGMQEMLDSVPEKRFPVCQAHGYFCQLIDGLEYLHSQGIVHKDIKPGNLLLTTGGTLKISDLGVAEALHPFAADDTCRTSQGSPAFQPPEIANGLDTFSGFKVDIWSAGVTLYNITTGLYPFEGDNIYKLFENIGKGSYAIPGDCGPPLSDLLKGMLEYEPAKRFSIRQIRQHSWFRKKHPPAEAPVPIPPSPDTKDRWRSMTVVPYLEDLHGADEDEDLFDIEDDIIYTQDFTVPGQVPEEEASHNGQRRGLPKAVCMNGTEAAQLSTKSRAEGRAPNPARKACSASSKIRRLSACKQQ

Variants of: B1
Assay: STK11 functional score (HeLa growth suppression), rescaled enrichment; synonymous median = 1, nonsense median = 0 (normalised score)
Conditions: with HeLa; variant type: missense
In short: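 HeLa cells carrying an AAVS1 landing pad received codon-optimised STK11 libraries made by codon randomisation (POPCode), integrated by Bxb1, with three regions each transfected three times. Integrants that were BFP-negative and mCherry-positive were sorted by FACS 4–5 days after electroporation and then grown for about two weeks. Tiled amplicons from gDNA were sequenced on NextSeq at ~2 million reads per tile. The functional score is a wild-type-corrected log ratio of post- to pre-selection counts, rescaled to the synonymous and nonsense medians, merged across codons and replicate transfections, and given a bootstrapped error.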

STK11 functional score: each site, then its substitutions
G180: P 0.814 | R 0.948 | N 1.39 | C 1.09 | I 1.41 | S 1.14 | Q 1.64 | E 1.09 | M 0.93 | F 0.804 | W 1.44 | H 1.65 | A 1.34 | L 1.02 | T 1.53 | V 0.816
P179: D -0.213 | S 0.562 | H -0.0435 | Y 0.059 | E 0.0456 | F 0.0795 | R -0.0831 | W 0.088 | L 0.376 | M 0.544 | A 0.764 | I 0.823 | V 0.541 | T 0.709 | G 0.216
L184: N 0.425 | C 0.804 | P 0.189 | T 1.49 | D -0.0783 | W 0.145 | G 0.204 | S 0.61 | V 1.01 | M 0.45 | R 0.329 | Q 0.906 | H 0.93 | F 0.735 | A 0.745 | I 0.978
T189: L 1.24 | I 1.33 | G 0.924 | C 1.15 | F 1.25
N181: V -0.181 | P -0.0573 | W -0.0742 | Q 0.708 | D -0.134 | M -0.246 | K -0.18 | E -0.231 | G 0.0242 | S -0.0295 | C -0.0246 | F -0.0897 | Y -0.0251 | H 0.134 | R -0.0333 | L -0.122 | I -0.248 | A 0.0629 | T -0.449
L183: T 1.1 | G 0.551 | R 0.0747 | H 1.43 | M -0.0817 | S 0.646 | Y 1.57 | P 0.221 | V 1.2 | E 0.3 | A 0.587 | F 0.885 | D 0.119
K178: I 0.388 | A 0.756 | S 0.586 | L 0.63 | C 0.883 | V 0.434 | F 0.35 | M 0.202 | G 0.325 | P -0.0986 | R 0.681 | W 0.413 | E -0.00538 | T 0.951
I177: V 1.06 | S -0.0448 | W -0.249 | Y 0.215
G188: L 0.732 | I 1.04 | W 0.946 | F 0.918 | V 0.388 | D 1.43 | S 1.05 | R 1.19 | P 1.36 | M -0.0265 | Y 1.6 | C 0.212 | A 0.938
T185: I 0.548 | W 0.387 | F 0.993 | V 0.913 | D 0.415 | P 0.0618 | G 0.548 | S 0.939 | C 1.13 | H 0.484 | N 0.509 | R 0.992 | L 1.08 | Y 0.976
G187: P 1.49 | I 1.62 | W 1.65 | S 1.67 | A 1.09 | T 1.59 | L 1.27 | V 0.795 | R 0.864
L182: I 1.56 | C 1.17 | W 0.0906 | S 0.561 | N 1.01 | V 0.907 | H -0.198 | P -0.0858 | G 0.327 | F 1.03 | R 0.129 | Y -0.00243 | D 0.257 | E -0.122 | A 0.345 | T 1.12
T186: P 1.52 | H 0.54 | L 1.54 | C 1.19 | S 1.1 | N 0.218 | R 1.11 | A 1.16 | V 1.24 | Y 1.14 | W 0.861 | F 1.33 | M 0.369
